Measurements from the supplement of paper PMC7125110.
± gives the standard error. For some of these results: This sample holds only a part of the variants without activity.

B1: glmS ribozyme (parent)
chain: AUAAAAGCGCCAGAACUACAGAAAUGUAGUUGACGAGGAGGAGGUUUAUCGAAUUUUCGGCGGAUGCCUCCAAA

Legend:
Settings in all cases: with glucosamine-6-phosphate
glucosamine-6-phosphate [1] = variants of: B1; experiment: kcat; higher = faster cleavage; RNA array
Outline: (§1)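 Glucosamine-6-phosphate in HEPES/KCl/Mg(OAc)2 buffer, at 40 μM to 10 mM, was flowed over barcoded ribozyme variants transcribed in situ by E. coli RNA polymerase on sequenced MiSeq chips. Tracking was through a hybridised Cy3 probe at 37 °C. kobs, kcat and KM came from exponential decay fits and weighted Michaelis–Menten fits of normalised per-tile medians.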

glucosamine-6-phosphate [2] = variants of: B1; experiment: KM; higher = weaker cofactor use; RNA array
Outline: as §1

glucosamine-6-phosphate [3] = variants of: B1; experiment: self-cleavage kobs at 40 uM GlcN6P; higher = faster cleavage; RNA array
Outline: as §1

glucosamine-6-phosphate [4] = variants of: B1; experiment: self-cleavage kobs at 160 uM GlcN6P; higher = faster cleavage; RNA array
Outline: as §1

glucosamine-6-phosphate [5] = variants of: B1; experiment: self-cleavage kobs at 640 uM GlcN6P; higher = faster cleavage; RNA array
Outline: as §1

glucosamine-6-phosphate [6] = variants of: B1; experiment: self-cleavage kobs at 2500 uM GlcN6P; higher = faster cleavage; RNA array
Outline: as §1

glucosamine-6-phosphate [7] = variants of: B1; experiment: self-cleavage kobs at 10000 uM GlcN6P; higher = faster cleavage; RNA array
Outline: as §1

| Variant | kcat (glucosamine-6-phosphate [1]) | KM (glucosamine-6-phosphate [2]) | self-cleavage kobs at 40 uM GlcN6P (glucosamine-6-phosphate [3]) | self-cleavage kobs at 160 uM GlcN6P (glucosamine-6-phosphate [4]) | self-cleavage kobs at 640 uM GlcN6P (glucosamine-6-phosphate [5]) | self-cleavage kobs at 2500 uM GlcN6P (glucosamine-6-phosphate [6]) | self-cleavage kobs at 10000 uM GlcN6P (glucosamine-6-phosphate [7]) |
| --- | --- | --- | --- | --- | --- | --- | --- |
| A15G A53C | 0.00857 ± 0.0011 s⁻¹ | 1860 ± 340 µM | 0.000205 ± 3.7e-05 s⁻¹ | 0.000653 ± 0.00021 s⁻¹ | 0.00195 ± 0.00035 s⁻¹ | 0.00522 ± 0.0012 s⁻¹ | 0.00742 ± 0.0015 s⁻¹ |
| U31A U55A | 0.0251 ± 0.0036 s⁻¹ | 3810 ± 790 µM |  | 0.000953 ± 0.00022 s⁻¹ | 0.00452 ± 0.0014 s⁻¹ | 0.00953 ± 0.0034 s⁻¹ | 0.0182 ± 0.0035 s⁻¹ |
| C16A U30C | 2.39e-05 ± 3.2e-06 s⁻¹ |  |  |  |  | 2.62e-05 ± 9e-06 s⁻¹ | 2.12e-05 ± 8.1e-06 s⁻¹ |
| U30G G37C | 1.26e-05 ± 3.7e-06 s⁻¹ |  | < 1e-05 s⁻¹ |  |  |  |  |
| A15G U56C | 0.0034 ± 0.0013 s⁻¹ |  | 5.65e-05 ± 1.3e-05 s⁻¹ | 0.00017 ± 2.9e-05 s⁻¹ | 0.000805 ± 0.00025 s⁻¹ | 0.00116 ± 0.00021 s⁻¹ | 0.00354 ± 0.0006 s⁻¹ |
| G29C U69C | 0.000103 ± 2.8e-05 s⁻¹ |  |  | 8.98e-05 ± 2.2e-05 s⁻¹ | 0.000129 ± 2.2e-05 s⁻¹ | 0.000164 ± 3e-05 s⁻¹ | 6.68e-05 ± 1.6e-05 s⁻¹ |
| U31A G41U | 0.000384 ± 3.8e-05 s⁻¹ | 430 ± 89 µM | 2.67e-05 ± 1.2e-05 s⁻¹ | 0.000103 ± 2e-05 s⁻¹ | 0.000289 ± 6.2e-05 s⁻¹ | 0.00034 ± 8.7e-05 s⁻¹ | 0.000344 ± 6e-05 s⁻¹ |
| U31C C50A | < 1e-05 s⁻¹ |  | < 1e-05 s⁻¹ |  |  |  |  |
| U30G C50A | < 1e-05 s⁻¹ |  | < 1e-05 s⁻¹ |  |  |  |  |
| A15U G32U | 0.00104 ± 0.0003 s⁻¹ | 6790 ± 2800 µM |  |  | 0.000103 ± 1.2e-05 s⁻¹ | 0.000266 ± 2.9e-05 s⁻¹ | 0.000628 ± 6.4e-05 s⁻¹ |
| C16G U55G | 0.0033 ± 0.0015 s⁻¹ |  | 0.000147 ± 2.3e-05 s⁻¹ | 0.000227 ± 5.1e-05 s⁻¹ | 0.000789 ± 0.00012 s⁻¹ | 0.00148 ± 0.00031 s⁻¹ | 0.00368 ± 0.00057 s⁻¹ |
| G29A A48U | 0.000327 ± 8.3e-05 s⁻¹ |  |  |  |  |  | 2.73e-05 ± 1.1e-05 s⁻¹ |
| A15U G37C C70G | 2.75e-05 ± 1.1e-05 s⁻¹ |  |  |  |  |  |  |
| C16G U45C | 0.0003 ± 7.1e-05 s⁻¹ |  |  |  | 7.2e-05 ± 2.1e-05 s⁻¹ | 0.000367 ± 9.7e-05 s⁻¹ | 0.000243 ± 3.7e-05 s⁻¹ |
| U31A A53C | 0.00557 ± 0.0019 s⁻¹ | 5300 ± 2300 µM | 4.92e-05 ± 9.4e-06 s⁻¹ | 0.000229 ± 3.4e-05 s⁻¹ | 0.000507 ± 6.9e-05 s⁻¹ | 0.00162 ± 0.00025 s⁻¹ | 0.00393 ± 0.00053 s⁻¹ |
| C16A U69A | 3.39e-05 ± 9e-06 s⁻¹ |  |  |  |  | 4.42e-05 ± 1.3e-05 s⁻¹ |  |
| C16A U69C | 0.00012 ± 3.2e-05 s⁻¹ |  |  |  | 9.93e-05 ± 2.2e-05 s⁻¹ | 7.87e-05 ± 2.2e-05 s⁻¹ | 0.000168 ± 4e-05 s⁻¹ |
| A15U G66U | 0.000139 ± 1.2e-05 s⁻¹ | 717 ± 180 µM |  |  | 6.31e-05 ± 9.8e-06 s⁻¹ | 0.000153 ± 4.4e-05 s⁻¹ | 0.000127 ± 1.5e-05 s⁻¹ |

| Variant | kcat (glucosamine-6-phosphate [1]) | KM (glucosamine-6-phosphate [2]) | self-cleavage kobs at 40 uM GlcN6P (glucosamine-6-phosphate [3]) | self-cleavage kobs at 160 uM GlcN6P (glucosamine-6-phosphate [4]) | self-cleavage kobs at 640 uM GlcN6P (glucosamine-6-phosphate [5]) | self-cleavage kobs at 2500 uM GlcN6P (glucosamine-6-phosphate [6]) | self-cleavage kobs at 10000 uM GlcN6P (glucosamine-6-phosphate [7]) |
| --- | --- | --- | --- | --- | --- | --- | --- |
| U30C C61G | 1.42e-05 ± 1.3e-06 s⁻¹ |  |  |  |  |  |  |
| U31C G40U U47A | 0.000144 ± 4.5e-05 s⁻¹ |  |  |  |  | 0.000154 ± 4.5e-05 s⁻¹ | 0.000116 ± 2.2e-05 s⁻¹ |
| U30A U49G C70U | 0.000102 ± 2.6e-05 s⁻¹ |  |  |  |  |  | 8.4e-05 ± 2e-05 s⁻¹ |
| U31C C58G | 7.48e-05 ± 2.5e-05 s⁻¹ |  | < 1e-05 s⁻¹ |  | 2.98e-05 ± 1.3e-05 s⁻¹ | 2.91e-05 ± 1.1e-05 s⁻¹ | 6.27e-05 ± 1.2e-05 s⁻¹ |
| U30C U47A | 0.000176 ± 9.3e-06 s⁻¹ | 1400 ± 190 µM |  |  | 5.72e-05 ± 8.2e-06 s⁻¹ | 0.000106 ± 1.2e-05 s⁻¹ | 0.00016 ± 1.6e-05 s⁻¹ |
| U30G A53C | 0.00231 ± 0.0004 s⁻¹ | 2690 ± 910 µM |  | 0.000159 ± 6.4e-05 s⁻¹ | 0.000512 ± 0.0001 s⁻¹ | 0.00138 ± 0.00034 s⁻¹ | 0.00177 ± 0.00022 s⁻¹ |
| C16G U57A C68U | 4.17e-05 ± 9.1e-06 s⁻¹ |  |  |  |  | 5.4e-05 ± 2.1e-05 s⁻¹ |  |
| G29U A39C | 0.00147 ± 0.00028 s⁻¹ | 2170 ± 670 µM | 2.91e-05 ± 9.8e-06 s⁻¹ | 8.26e-05 ± 1.4e-05 s⁻¹ | 0.000457 ± 5.8e-05 s⁻¹ | 0.000781 ± 0.0001 s⁻¹ | 0.00118 ± 0.00014 s⁻¹ |
| U30A A36G | < 1e-05 s⁻¹ |  | < 1e-05 s⁻¹ |  | < 1e-05 s⁻¹ |  |  |
| G29C G66U | 6.74e-05 ± 1.2e-05 s⁻¹ |  |  |  |  | 7.9e-05 ± 2e-05 s⁻¹ | 5.98e-05 ± 1e-05 s⁻¹ |
| U30C G66U | < 1e-05 s⁻¹ |  |  | < 1e-05 s⁻¹ |  |  |  |
| U30C G60U | < 1e-05 s⁻¹ |  | < 1e-05 s⁻¹ |  | < 1e-05 s⁻¹ |  | < 1e-05 s⁻¹ |
| U31A G59U | 3.57e-05 ± 2.2e-06 s⁻¹ | 2240 ± 490 µM |  |  |  |  |  |
| G29U U69G | 5.24e-05 ± 1.4e-05 s⁻¹ |  |  | 5.79e-05 ± 1.4e-05 s⁻¹ | 7.49e-05 ± 1.7e-05 s⁻¹ | 5.06e-05 ± 1.2e-05 s⁻¹ |  |
| U31C A52G | 0.000531 ± 5.8e-05 s⁻¹ | 4640 ± 810 µM |  | 2.13e-05 ± 8.7e-06 s⁻¹ | 6.14e-05 ± 7.4e-06 s⁻¹ | 0.000196 ± 2.2e-05 s⁻¹ | 0.000358 ± 3.4e-05 s⁻¹ |
| C16A A53G | 0.00159 ± 0.00057 s⁻¹ |  | 7.66e-05 ± 1.7e-05 s⁻¹ | 0.000134 ± 3.8e-05 s⁻¹ | 0.000374 ± 9.2e-05 s⁻¹ | 0.000777 ± 0.00017 s⁻¹ | 0.0017 ± 0.00029 s⁻¹ |
| U30G C67A C70U | 0.000403 ± 2.7e-05 s⁻¹ | 353 ± 78 µM |  |  | 0.00027 ± 6.3e-05 s⁻¹ | 0.000399 ± 0.00014 s⁻¹ | 0.000369 ± 8.4e-05 s⁻¹ |
| G29U G41A | 0.000207 ± 3.7e-05 s⁻¹ | 1480 ± 620 µM | < 1e-05 s⁻¹ |  | 5.62e-05 ± 1.8e-05 s⁻¹ | 0.000155 ± 3.1e-05 s⁻¹ | 0.000164 ± 4e-05 s⁻¹ |
